# B1: mAb 4A8 (published; Chi et al., 2020) (antibody, V domains shown)
# VH: QVQLVESGAEVKKPGASVKVSCKVSGYTLTELSMHWVRQAPGKGLEWMGGFDPEDGETMYAQKFQGRVTMTEDTSTDTAYMELSSLRSEDTAVYYCATSTAVAGTPDLFDYYYGMDVWGQGTTVTVSS
# VL: EIVMTQSPLSSPVTLGQPASISCRSSQSLVHSDGNTYLSWLQQRPGQPPRLLIYKISNRFSGVPDRFSGSGAGTDFTLKISRVEAEDVGVYYCTQATQFPYTFGQGTKVDIK
# Target: SARS-CoV-2 S ectodomain trimer, prefusion-stabilized, 2P variant (Wrapp et al., 2020) (SARS-CoV-2, Wuhan-Hu-1, UniProt P0DTC2, stabilised)
# Experiment: ELISA
binder,measurement,value
B1,binding result,binds

# Reference: PMC8299219 (Cell, 2021)
